Measured values published in article PMC10653929, “Activities, substrate specificity, and genetic interactions of fission yeast Siw14, a cysteinyl-phosphatase-type inositol pyrophosphatase” (mBio, 2023).

Key:
Cys403 = Cys403 (UniProt position 403, RPVIHCRAGVG); experiment: chemical modification; settings: cited from earlier work
SpSiw14; Siw14-(1-287) = biological target: T1, SpSiw14; Siw14-(1-287) (Schizosaccharomyces pombe, UniProt Q9UUF3); experiment: inhibition of p-nitrophenylphosphate hydrolysis; type: biochemical
T1 construct: full length aa 1-287, E. coli BL21(DE3), His10Smt3 tag removed with Ulp1, monomer by gel filtration
T1 sequence (Q9UUF3 1-287): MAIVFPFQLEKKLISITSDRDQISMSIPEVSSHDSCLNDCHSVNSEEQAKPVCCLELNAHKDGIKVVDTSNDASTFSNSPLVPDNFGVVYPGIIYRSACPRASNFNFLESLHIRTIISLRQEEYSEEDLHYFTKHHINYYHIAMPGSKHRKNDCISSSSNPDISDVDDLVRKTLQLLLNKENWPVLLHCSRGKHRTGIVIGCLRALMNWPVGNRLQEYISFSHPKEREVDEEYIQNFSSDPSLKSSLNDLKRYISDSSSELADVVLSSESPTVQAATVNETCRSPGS
Excerpt: inhibition of p-nitrophenylphosphate hydrolysis on SpSiw14; Siw14-(1-287) | Phosphate and sulfate elicited a similar concentration-dependent inhibition of SpSiw14 phosphatase activity with an IC50

purified protein = substrate: O=[N+]([O-])c1ccc(OP(=O)(O)O)cc1; experiment: purified protein; type: biochemical, Schizosaccharomyces pombe; settings: 25 mM Tris-acetate pH 5.0, 1 mM DTT, 37°C, no divalent cation
[1] = substrate: O=P(O)(O)OP(=O)(O)O; experiment: phosphate release by Malachite Green, Michaelis-Menten fit; type: biochemical, Schizosaccharomyces pombe; settings: 25 mM Tris-acetate pH 5.0, 1 mM DTT, 37°C, no divalent cation, apparent kcat per PPi consumed

For “Yersinia protein tyrosine phosphatase (Yersinia PTPase, YopH/Yop51) (Yersinia sp. (species not stated in the article; inferred Yersinia enterocolitica))”, the pKa (Cys403) is given as 4.67.

`O=S(=O)(O)O` [sulfate] gave an IC50 (SpSiw14; Siw14-(1-287)) of about 5 mM.

`O=P(O)(O)O` [inorganic phosphate] showed an IC50 (SpSiw14; Siw14-(1-287)) of about 5 mM.

B1: SpSiw14; Siw14-(1-287) (Schizosaccharomyces pombe 972h-) (protein)
chain: T1 sequence (Q9UUF3 1-287)
notes: full length aa 1-287, E. coli BL21(DE3), His10Smt3 tag removed with Ulp1, monomer by gel filtration
Molecule B1 has a Km (purified protein) of 1640 ± 180 µM, a kcat (purified protein) of 1.24 ± 0.045 s⁻¹ and a Km [1] of 1130 ± 340 µM. The kcat [1] was 0.443 ± 0.0817 s⁻¹.
